Assay results published in the RNAGym collection of RNA variant scans (doi:10.1021/acssynbio.7b00057).

B1: Pistol ribozyme (parent)
chain: GGGUCGUUGUUCCAUAAUCGCGUGGAUAUGGCACGCAAGUUUCUACCGGGCACCGUAAAUGUCCGACUGGAGCCGUUCGGGCGGCUAUAAACAGACCUCAGGCCCGAAGCGUGGCGGCACCUGCCGCCGGUGGUAAAAAAGAUCGGAAGAGCACACGUCU

Variants of: B1
Assay: aptazyme ON/OFF ratio, guanine; higher = stronger switching; co-transcriptional cleavage with and without guanine

| Variant | aptazyme ON/OFF ratio |
| --- | --- |
| U8C U10A C13G | 1.05 |
| U7A U8A G9C U11C C12U | 1.09 |
| U8A G9A U11A C12A C13U | 1.35 |
| U7A U8G G9C C13G | 1.11 |
| U7C U8A U11C C12G C13U | 1.3 |
| U7A G9C U10C U11C C12G C13A | 1.06 |
| U7C U8A G9A U10A U11A C12A C13G | 1.18 |
| U7A U8C G9U U10A C12U C13A | 1.29 |
| U7G G9C U10C U11G C12U | 1.57 |
| U7A U8G G9U U10C U11G C12G C13A | 1.36 |
| G9A U11G | 2.2 |
| U7C G9U C12G C13G | 1.1 |
| U7G G9A U10A C12A C13U | 1.28 |
| U7C U10A U11G C12U C13A | 1.35 |
| U7G G9U U10A U11G C12U C13U | 1.27 |
| U7A U8G G9A U11C C12U C13U | 1.46 |
| U7G U8G G9A U10A U11C C12A | 1.21 |
| U7G G9A U11C C12U | 1.39 |
| U7C U8G G9A U11C C12A C13G | 1.12 |
| U8A G9U U10A U11A C12U C13U | 1.53 |
| G9U U10A C13A | 1.27 |

| Variant | aptazyme ON/OFF ratio |
| --- | --- |
| G9A U11C C13U | 1.11 |
| U7A U8C U10C U11A | 1.16 |
| U7A U8A G9A U10C | 1.52 |
| G9C U10G C12G | 1.19 |
| U8C G9A U10A C12G C13A | 1.14 |
| U7G U8C G9A U10A U11A C12G C13A | 1.13 |
| U8G U11G C12G | 1.18 |
| U7C U8C G9A U11G C12U C13U | 1.35 |
| U7G U8C G9U U10G U11G C12U C13U | 1.44 |
| U10G C12U C13A | 1.33 |
| U8A G9U C12A C13A | 1.52 |
| U8A G9A U11A C12U C13G | 1.18 |
| U7C U8A U10C U11C C12A C13G | 1.27 |
| U7A U8C G9C U10C C12G | 1.03 |
| U7G U8C G9A U10G C12G C13A | 1.12 |
| G9C U11G C12G C13G | 1.07 |
| U7A G9U U10C U11A C12U | 1.23 |
| U7A U8C G9A U10G U11C C12G C13U | 1.18 |
| U8C G9C U10A U11C C13U | 1.14 |
| U7A G9C U11C C12U C13A | 1.04 |
| U7C U8C G9U C12U C13U | 1.3 |

| Variant | aptazyme ON/OFF ratio |
| --- | --- |
| U8A G9C U10C U11C C13A | 1.02 |
| U8A G9U U10C U11C C12A C13A | 1.01 |
| U8A G9A U11A C12U C13U | 1.29 |
| U8G G9A U10A U11C C12U C13U | 1.07 |
| U7G U8C G9A U10G U11C C12U C13U | 1.12 |
| U7A C12U C13A | 1.29 |
| U7A U8C G9C U10C U11A C12G C13G | 1.08 |
| U7C U8G U10C U11A C12G C13U | 1.08 |
| U7C U8A G9U U10G U11A C12A | 1.34 |
| G9U U10G U11C C12A C13G | 1.29 |
| U7C U8C G9C U10G U11C C12G C13U | 1.11 |
| U7G U8A G9U U10C U11C C12U | 1.06 |
| U7A G9U U10A U11A C12U | 1.28 |
| U7G U8A G9U U10A U11G C12U C13A | 1.07 |
| U7A U10G U11G C12A C13G | 1.16 |
| U7G U8A U10G U11G | 1.59 |
| U8A G9U U11C C12U C13A | 1.2 |
| U7C U8G G9U U11C C12U C13U | 1.32 |
| U7C U8A U10G C13U | 1.28 |
| U7C U8G G9C U11C C12G | 1.67 |
| U7C U8A C12A C13G | 1.09 |

| Variant | aptazyme ON/OFF ratio |
| --- | --- |
| U7A U8G G9A U10A C12G C13A | 1.52 |
| U8G G9A U10G U11C C12G C13U | 1.4 |
| U7C U8C G9C U10A U11A C13U | 1.15 |
| U7C U8G U11C C12A C13U | 1.34 |
| U7C U10C U11G C13U | 1.74 |
| U8G G9U U10G U11A C13A | 1.01 |
| U7C U8A G9C U10A U11C | 1.05 |
| U8C G9A U10G C12U | 1.36 |
| U7A U8C G9U U11A C12G C13U | 1.2 |
| U7A G9C U11A C12G | 1.08 |
| U7A G9C U10G C12G C13G | 1.1 |
| U7C U8C G9A U10G U11G C12U | 1.25 |
| U7A U8G G9U U10C C12U C13U | 1.31 |
| U7C U8C G9C U10G C12G C13G | 1.09 |
| U8A U10C U11G | 1.18 |
| U7A U8C U10G U11A C12G C13G | 1.14 |
| U8G G9A U10A U11C C13G | 1.04 |
| U8C G9U U10G U11A | 1.13 |
| U8C G9U U10G U11G C12A C13A | 1.14 |
| U7G U8C G9U U10G U11C C12A C13G | 1.45 |
| U7A U10C U11G C13U | 1.17 |
